The target in assay [1] is T1, crab-eating macaque CLDN-5 protein (crab-eating macaque, UniProt O00501 1-218 (human entry)).
T1 construct: Expressed on cells by retrovirus; also called cCLDN-5; MDCKII/cCLDN-5
T1 chain: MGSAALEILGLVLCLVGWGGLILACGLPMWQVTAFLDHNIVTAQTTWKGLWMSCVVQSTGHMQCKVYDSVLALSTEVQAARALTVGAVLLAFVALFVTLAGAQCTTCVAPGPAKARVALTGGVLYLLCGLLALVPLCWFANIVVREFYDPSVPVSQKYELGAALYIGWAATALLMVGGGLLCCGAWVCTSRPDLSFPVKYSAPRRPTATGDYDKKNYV
Nature of the assay: FACS on CLDN-5-expressing cells, antibody 5 µg/mL. The method, then:
(§1) The obtained CLDN-expressing cells were seeded in a 10 cm dish, and on the next day, the cells were collected. The primary antibodies (100 μL) were added to the obtained 1.0×10⁵ cells and allowed to react for 1 hour at 4° C. At this time, a mixed solution of a C-CPE mutant (C-CPEmt) and a mouse anti-His tag antibody (Abeam) used in Non-Patent Literature 3 was used as positive control. The cells were washed three times with 0.2% BSA-PBS, then mixed with 100 μL of a secondary antibody solution (FITC conjugated goat anti-mouse IgG or anti-rat IgG (Jackson Immune Research, 115-095-003 or 112-095-003) 400x diluted with 1% BSA-PBS, and allowed to react for 1 hour at 4° C. The cells were washed with 0.2% BSA-TBS and then analyzed using FACS caliber (BD Bioscience).
In the same manner as in Example 1-2), a DNA fragment consisting of a cCLDN-5 protein (SEQ ID NO: 28)-encoding sequence or an mCLDN-5 protein (SEQ ID NO: 29)-encoding sequence was inserted into a pCX4pur vector, thereby obtaining vectors for preparing a retrovirus. By using these vectors with the vector for preparing a retrovirus prepared in Example 1-2), various animal species CLDN-5 protein-expressing cells were prepared. By using these cells and the antibodies (antibody concentration: 5 μg/mL, as primary antibody), FACS assay was performed in the same manner as in 3-1).

The next assay concerns the target T2, mCLDN-1 protein (mouse, UniProt O88551 1-211).
T2 construct: Expressed on cells by retrovirus; also called mouse Claudin-1 protein
T2 sequence: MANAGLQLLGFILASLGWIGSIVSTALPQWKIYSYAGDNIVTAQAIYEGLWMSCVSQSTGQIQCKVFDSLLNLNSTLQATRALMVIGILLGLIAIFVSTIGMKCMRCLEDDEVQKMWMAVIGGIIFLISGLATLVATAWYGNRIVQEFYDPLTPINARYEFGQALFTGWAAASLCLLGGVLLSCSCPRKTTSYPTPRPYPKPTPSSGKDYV
Nature of the assay: FACS, hybridoma supernatant on CLDN-expressing cells.
Excerpt: (§2) By the insertion of a DNA fragment consisting of an hCLDN-1 protein (SEQ ID NO: 30)-encoding sequence, an hCLDN-2 protein (SEQ ID NO: 31)-encoding sequence, an hCLDN-3 protein (SEQ ID NO 32)-encoding sequence, an hCLDN-4 protein (SEQ ID NO: 33)-encoding sequence, an hCLDN-6 protein (SEQ ID NO: 34)-encoding sequence, an hCLDN-7 protein (SEQ ID NO: 35)-encoding sequence, an mCLDN-1 protein (SEQ ID NO: 37)-encoding sequence, an mCLDN-2 protein (SEQ ID NO: 38)-encoding sequence, an mCLDN-3 protein (SEQ ID NO: 39)—encoding sequence, or an mCLDN-5 protein (SEQ ID NO: 29)-encoding sequence, vectors for preparing a retrovirus were obtained. By using these vectors and the vector for preparing a retrovirus prepared in Example 1-2), various CLDN protein-expressing cells were prepared. By using these cells and a culture supernatant of hybridomas producing antibodies as primary antibodies, FACS assay was performed by the following method.
as §1
On the technique in general: Flow cytometry measures light scatter and fluorescence of single cells or particles in a stream.

A further assay has as its target T3, mCLDN-2 protein (mouse, UniProt O88552 1-230).
T3 construct: Expressed on cells by retrovirus; also called mouse Claudin-2 protein
T3 sequence: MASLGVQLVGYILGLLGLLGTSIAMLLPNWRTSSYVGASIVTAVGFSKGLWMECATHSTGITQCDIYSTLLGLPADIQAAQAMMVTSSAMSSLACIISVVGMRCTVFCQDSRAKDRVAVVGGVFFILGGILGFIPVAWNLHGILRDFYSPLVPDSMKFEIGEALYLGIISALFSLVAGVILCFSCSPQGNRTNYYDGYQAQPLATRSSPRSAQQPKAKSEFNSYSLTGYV
The assay is described as above.
Excerpt: as §2, §1

The next assay addresses T4, mCLDN-3 protein (mouse, UniProt Q9Z0G9 1-219).
T4 construct: Expressed on cells by retrovirus; also called mouse Claudin-3 protein
T4 sequence: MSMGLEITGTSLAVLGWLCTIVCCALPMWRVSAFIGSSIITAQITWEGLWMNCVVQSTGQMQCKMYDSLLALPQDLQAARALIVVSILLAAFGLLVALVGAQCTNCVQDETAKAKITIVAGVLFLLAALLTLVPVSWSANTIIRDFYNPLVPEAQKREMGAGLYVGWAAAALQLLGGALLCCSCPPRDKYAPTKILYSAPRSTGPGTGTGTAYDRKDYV
The description is as above.
Excerpt: as §2, §1

Assay [2] addresses T5, wild-type human CLDN-5 protein (human, UniProt O00501 1-218).
T5 construct: Four-transmembrane tight junction protein expressed by retrovirus on HT-1080 (or MDCKII) cells; also called hCLDN-5; human Claudin-5 protein
T5 sequence: T1 chain with G86S, L127F, G179C, S190G
Nature of the assay: FACS saturation binding on HT-1080/hCLDN-5, one-site fit; Lot 1. The method, then:
as §1
(§3) By using HT-1080/hCLDN-5 and 100 μL of the anti-CLDN-5 antibody at each concentration diluted with 1.0% BSA-PBS, FACS assay was performed in the same manner as in Example 3-1). […] At this time, the equation of saturation binding-one site-specific binding of Graph Pad prism 7 (Graph Pad Software) was used.

Assay [3] concerns the target T5, wild-type human CLDN-5 protein. The assay can be described thus: FACS saturation binding on HT-1080/hCLDN-5, one-site fit; Lot 2. The method, then: as §1, §3
The next assay concerns the target T6, mouse CLDN-5 protein (mouse, UniProt O54942 1-218).
T6 construct: Expressed on cells by retrovirus; also called mCLDN-5; MDCKII/mCLDN-5
T6 sequence: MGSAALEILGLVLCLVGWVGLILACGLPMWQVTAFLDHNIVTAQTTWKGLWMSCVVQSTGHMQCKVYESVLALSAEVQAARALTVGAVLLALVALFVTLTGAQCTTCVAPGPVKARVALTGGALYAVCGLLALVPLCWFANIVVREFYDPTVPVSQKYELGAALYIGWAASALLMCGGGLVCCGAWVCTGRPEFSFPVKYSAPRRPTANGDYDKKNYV
Nature of the assay: FACS, hybridoma supernatant on CLDN-expressing cells.
Excerpt: as §2, §1

Positions count from the first letter of the chain named.

B1: rat anti-CLDN-5 antibody R9 (antibody, rat IgG2b, V domains shown)
VH: QVTLKESGPGILQPSHTLSLTCSFSGFSLNTYGVGVNWIRQPSGKGLEWLASIWWHGKTYINPSLKNRLTVSKDPSNNQAFLEVTNVDPADTATYYCAHARAQLLDYWGQGVMVTVSS
VL: DIVMTQTPSSQAVSAGEKVTMSCKSSQSLLYSGDQKNYLAWYQQKPGQSPKLLIYLTSTRESGVPDRFIGSGSGTDFTLTISSVQAEDLADYYCQQHYSYPLTFGSGTKLEI
notes: Hybridoma monoclonal; also called antibody I
B1: the binding result in assay [1] is given as “binds”; in the assay with mCLDN-1 protein, “no binding”; in the assay with mCLDN-2 protein, “no binding”; in the assay with mCLDN-3 protein, “no binding”. For the same molecule, the Kd (commonly a measure of binding affinity in units of concentration) in assay [2] is 3.78 nM; in assay [3] it was 2.75 nM.

B2: rat anti-CLDN-5 antibody R14 (antibody, rat IgG2a, V domains shown)
VH: QVTLKESGPGILQPSHTLSLTCSFSGFSLSTYGMGVSWIRQPSGKGLEWLASIWWNGRTYTNPSLMSRLTVSKDTSTNQAFLRVTSVETADTATYYCAHTPYDYSNLGWFTYWGQGTLVTVSS
VL: B1 VL with V3L, M21V, N37S, T57A, E61K, S99T
notes: Hybridoma monoclonal; also called antibody K
Consider B2, for which the binding result was “binds” in assay [1]; “no binding” in the assay with mouse CLDN-5 protein; “no binding” with mCLDN-1 protein; “no binding” with mCLDN-2 protein; “no binding” in the assay with mCLDN-3 protein. Further, the values for the Kd in assay [2] and in assay [3] were 4.66 nM and 8.42 nM, respectively.

B3: mouse anti-CLDN-5 antibody M3 (antibody, mouse IgG2b, V domains shown)
VH: EVQLQQSGPELVKPGASVKISCKASGYSFTGYYMNWVKQSPEKSLEWIGDINPSTGGATYNQKFKAKATLTVDKSSSTAYMQLKSLTSEDSAVFYCALYSNYGFVYWGQGTLVTVSA
VL: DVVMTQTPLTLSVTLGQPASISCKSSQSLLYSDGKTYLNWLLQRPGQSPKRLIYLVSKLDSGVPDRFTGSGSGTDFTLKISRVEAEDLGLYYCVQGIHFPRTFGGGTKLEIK
notes: Hybridoma monoclonal; also called antibody A
Turning to B3, the binding result is “binds” in assay [1], “no binding” with mouse CLDN-5 protein, “no binding” with mCLDN-2 protein and “no binding” with mCLDN-3 protein. The Kd was found to be 3.89 nM in assay [2] and 6.41 nM in assay [3].

B4: rat anti-CLDN-5 antibody R2 (antibody, rat IgG2a, V domains shown)
VH: QVQLKESGPGLVQPSQTLSLTCTVSGLSLIRNSVSWIRQPPGKGLEWMGVIWSNGGTEYNSTVKSRLSISRDTSKNQVFLKMNSLQTEDSAMFFCARTPDGYYPYFDYWGQGVMVTVSS
VL: DIVLTQSPATLSVTPGESVSLSCRASQGISTSIHWYQQKSNESPRLLIRYASQSISRIPSRFSGSGSGTDFTLTINGVESEDLSVYYCQQSYNLPLTFGSGTKLEI
notes: Hybridoma monoclonal; also called antibody F
On to B4, for which the binding result with mouse CLDN-5 protein, in the assay with mCLDN-1 protein, in the assay with mCLDN-2 protein and in the assay with mCLDN-3 protein was “no binding” each time. Moreover, the Kd in assay [2] was 20.1 nM; in assay [3], 20.7 nM.

B5: mouse anti-CLDN-5 antibody M48 (antibody, mouse IgG3, V domains shown)
VH: QAYLQQSGAELVRPGASVKMSCKASGYTFTSYNMHWVKKTRRQGLEWIGAISPGNGNTSYNQKFKGKATLTVDKSSSTAYMQLSSLTSEDSAVYFCARDDGYYGALDYWGQGTSVTVSS
VL: B4 VL
notes: Hybridoma monoclonal; also called antibody E
On to B5, for which the binding result in the assay with mCLDN-1 protein, with mCLDN-2 protein and with mCLDN-3 protein was “no binding” in each case. Further, the Kd turned out to be 29.1 nM in assay [2] and 8.47 nM in assay [3].

B6: rat anti-CLDN-5 antibody R3 (antibody, rat IgG2a, V domains shown)
VH: EVQLVESGGGLVQPGRSLKLSCAASGFTFSDYYMAWVRQAPKKGLEWVASISYEGRNTYYGDSVKGRFTISRDNAKSTLYLQMKSLRSEDTATYYCTRHPRRYFDYWGQGVMVTVSS
VL: DIVMTQSPSSLAVSAGETVTMNCRSSQSLFSSGDQKKFLAWYQQKPGQSPKLLISLASTRESGVPDRFIGSGSGTDFTLTINNMQAEDLAIYYCQQHYDIPYTFGAGTKLEL
notes: Hybridoma monoclonal; also called antibody G
As for B6, the binding result in assay [1] was “binds”; in the assay with mouse CLDN-5 protein it was “no binding”; with mCLDN-1 protein, “no binding”; in the assay with mCLDN-2 protein, “no binding”; with mCLDN-3 protein it was “no binding”. The Kd in assay [2] turned out to be 7.19 nM; in assay [3], 2.44 nM.

B7: mouse anti-CLDN-5 antibody M11 (antibody, mouse IgG2b, V domains shown)
VH: QVQLKQSGPGLVQPSQSLSITCTVSGFSLIRYGVHWVRQSPGKGLEWLGVKWSGGSTDYNGAFKSRLSISKDNSKSQVFFKMNSLQADDTAIYYCARGLDGYYVPDVWGTGTSVTVS
VL: DIVMTQSHKFMSTSVGDRVSITCKASQDVSTNVAWYQQKPGQSPTLLIYWASTRHTGVPDRFTGSGSGTDYTLTISSVQAEDLALYYCQQHYSTPLTFGAGTKLELRR
notes: Hybridoma monoclonal; also called antibody B
Take B7: the binding result in assay [1] is listed as “binds”; in the assay with mouse CLDN-5 protein it was “no binding”; in the assay with mCLDN-1 protein, “no binding”; with mCLDN-2 protein, “no binding”; with mCLDN-3 protein it was “no binding”. Also, the Kd in assay [2] was determined as 8.72 nM; in assay [3], 9.68 nM.

Source of the values: patent publication US20200148765A1 (OSAKA UNIVERSITY, published 2020).
